Assay results: patent US9777041B2, “Protein nanofibers from self-assembling pentamers” (New York University, priority 2013, dated 2017)
“And” between values parts separate entries of the source, which are not always exact repeats. Equal entries are not always repeated.

How the values were obtained:
[1] = Confocal microscopy of protein fibers in the presence of curcumin; type: physicochemical
Method: FIGS. 7a-7c show confocal microscopy of CC, Q54, and COMPcc^S wt, in the presence of curcumin. The mixture of protein to curcumin were all at a ratio of 1:5. […] All different proteins are in 50 mM phosphate buffer, pH 4. Protein and curcumin samples were combined and incubated for 12 hours prior to imaging. […] The width of COMPcc^S wt shown in FIG. 7c was determined to be 12.72 μm. […] Overall, Q54 fibers appeared to be more uniform in width, as well as more robust and consistent in fiber formation.
Confocal microscopy: Samples were imaged using a Leica TCS SP2 AOBS confocal microscope system equipped with argon ion and HeNe lasers. A 63×/1.4 NA oil-immersion objective was used for all of the images. Lab-Tek II chambered #1.5 German coverglass system was used as the imaging slide. Curcumin was excited using the 458 nm line of the argon laser, and images were taken with the detection window set between 465 and 560 nm. The pinhole aperture was set at an Airy value of 1.0, which was equivalent to sampling an ˜500 nm vertical z slice of the fiber, as estimated by the axial resolution, rz,confocal≈1.4λcm n/NA^2 (NA, numerical aperture; n, refractive index; λcm, emission wavelength (525 nm)). Interference contrast images were obtained using the Leica tube optics HC 1×/B apparatus with a focusing Bertrand lens. The 3D reconstructions were constructed using ImageJ 64 1.43 in concert with Amira 5.43, employing the Volren 3D rendering routine.

[2] = Circular dichroism thermal melts at 222 nm, van't Hoff analysis; type: physicochemical; details: for Tm: 10 μM protein; for ΔG° (free energy of folding): at 25° C.; for ΔS°: ΔS° = ΔH°/Tm
Method: Circular dichroism: Circular dichroism (CD) measurements were conducted on a Jasco J-815 CD spectrometer. Wavelength and temperature scans were conducted with 10 μM (6.3×10^−2 mg/mL) protein concentrations. The wavelength spectrum was measured over a range from 190 to 250 nm with a step size of 1 nm Mean residue ellipticity (MRE) was calculated from raw data according to the procedure described in Gunasekar et al. 2009. Secondary structure analysis of α-helical, β-sheet, and random coil content was calculated with the K2D method using DichroWeb software. Temperature scans of each protein were performed over a range of 20-85° C. with a temperature step of 1° C./min at 222 nm. Scans were also performed at of 2° C./min and 5° C./min to evaluate dependence of thermal melt signatures on scan speed. All measurements were made in duplicates of independently prepared proteins and data represents the average. Thermodynamic properties of wt and Q were determined through analysis of thermal melts. A two-state model was used, where assumptions included monophasic behavior and reversible melting behavior. These assumptions were confirmed experimentally by melting (from 20 to 85° C.) and cooling (from 85 to 20° C.) the proteins. Calculation of thermodynamic parameters including Tm, ΔG°, ΔH°, and ΔS° were performed according to the method described by Greenfield.
Thermodynamic properties were assessed via thermal melt of the proteins at 222 nm. Prior to calculating thermodynamic constants, assumptions of monophasic behavior and melt reversibility were confirmed experimentally for wt and Q at all pHs by melting and cooling proteins (FIGS. 18a-18d). The van't Hoff equation was applied to thermal melts of the proteins in the range of 20-85° C.

Substance: Q: Q54 protein, SEQ ID NO:2, variant of COMPcc; coiled-coil that self-assembles into homopentamers and nanofibers (MRGSHHHHHHGSIEGRVKEITFLKNTAPQMLRELQETNAALQDVRELLRQQSKL)
- microfiber diameter ([1]; in the presence of curcumin (10 μM Q, 50 μM curcumin), pH 4): 16 μm and 16.0±5.6 μm
- average width of protein fibers ([1]; protein:curcumin 1:5, 20 mM protein, 100 mM curcumin, 50 mM phosphate buffer pH 4, 12 hours): 16.87±9 μm
- melting temperatures (Tm) ([2]; across all pH values (4, 8, 10)): 46.4-63.5 °C
- increase in Tm compared to the parent wt ([2]; pH 4): 7.2 °C
- ΔH° (van't Hoff enthalpy) ([2]; pH 4): -135 kJ/mol
- Tm ([2]; pH 4): 55.3 °C
- ΔG° (free energy of folding) ([2]; pH 4): -13.8 kJ/mol
- ΔS° ([2]; pH 4): -97.1 cal/(mol·K)
- increase in Tm compared to the parent wt ([2]; pH 8): 14.7 °C
- ΔH° (van't Hoff enthalpy) ([2]; pH 8): -136 kJ/mol
- Tm ([2]; pH 8): 63.5 °C
- ΔG° (free energy of folding) ([2]; pH 8): -15.9 kJ/mol
- ΔS° ([2]; pH 8): -96.8 cal/(mol·K)
- ΔH° (van't Hoff enthalpy) ([2]; pH 10): -194 kJ/mol
- Tm ([2]; pH 10): 46.4 °C
- ΔG° (free energy of folding) ([2]; pH 10): -13 kJ/mol
- ΔS° ([2]; pH 10): -145 cal/(mol·K)
